Test results published in patent US20090053203A1 (ONTHERIX, published 2009).
Ends that are not written are not given here.

Key:
Assay in all cases: chemical cross-linking of the biotinylated peptide on chilled cells, capture on Ni-NTA plates, detection with an antibody to the marker
PCNA = target: T1, PCNA (UniProt P12004 1-261, limits assumed)
T1 construct: whole, on cells
Protocol: (§1) HEK293 kidney cell line and 54 tumor cell lines obtained from the National Cancer Institute and passaged in RPMI1640 cell culture medium supplemented with 10% fetal bovine serum and 10 uM FeCl₂. Uptake of streptavidin-horseradish peroxidase (SA-HRP) conjugate and of various SA-HRP::MBD peptide complexes was determined as described (Singh et al. J Biol Chem. 279 (1):477-87 [2004]) using biotinylated MBD9 ([…]) (SEQ ID NO: 10) and MBD21 ([…]) (SEQ ID NO: 4) peptides and SA-HRP. Nuclear and cytoplasmic localization of these proteins was also determined in each case. […] In order to establish the underlying molecular mechanism for this variability, we cross-linked MBD21 peptide to the following cell surface markers at 4 degrees Celsius as previously described (Singh et al. J Biol Chem. 279 (1):477-87 [2004]): transferrin receptor 1, caveolin 1, PCNA, integrins alpha v, 2, 5 and 6, integrins beta 1, 3 and 5. […] Based on the strength of these correlations, it was possible to derive crude predictive formulae for MBD-mediated uptake based on the rate of cross-linking to surface markers. Such predictive formulas could form the basis for a diagnostic procedure to select appropriate targets for MBD-based therapies.

transferrin receptor 1 = target: T2, transferrin receptor 1 (UniProt P02786 1-760, limits assumed)
T2 construct: whole, on cells
T2 sequence (P02786 whole entry): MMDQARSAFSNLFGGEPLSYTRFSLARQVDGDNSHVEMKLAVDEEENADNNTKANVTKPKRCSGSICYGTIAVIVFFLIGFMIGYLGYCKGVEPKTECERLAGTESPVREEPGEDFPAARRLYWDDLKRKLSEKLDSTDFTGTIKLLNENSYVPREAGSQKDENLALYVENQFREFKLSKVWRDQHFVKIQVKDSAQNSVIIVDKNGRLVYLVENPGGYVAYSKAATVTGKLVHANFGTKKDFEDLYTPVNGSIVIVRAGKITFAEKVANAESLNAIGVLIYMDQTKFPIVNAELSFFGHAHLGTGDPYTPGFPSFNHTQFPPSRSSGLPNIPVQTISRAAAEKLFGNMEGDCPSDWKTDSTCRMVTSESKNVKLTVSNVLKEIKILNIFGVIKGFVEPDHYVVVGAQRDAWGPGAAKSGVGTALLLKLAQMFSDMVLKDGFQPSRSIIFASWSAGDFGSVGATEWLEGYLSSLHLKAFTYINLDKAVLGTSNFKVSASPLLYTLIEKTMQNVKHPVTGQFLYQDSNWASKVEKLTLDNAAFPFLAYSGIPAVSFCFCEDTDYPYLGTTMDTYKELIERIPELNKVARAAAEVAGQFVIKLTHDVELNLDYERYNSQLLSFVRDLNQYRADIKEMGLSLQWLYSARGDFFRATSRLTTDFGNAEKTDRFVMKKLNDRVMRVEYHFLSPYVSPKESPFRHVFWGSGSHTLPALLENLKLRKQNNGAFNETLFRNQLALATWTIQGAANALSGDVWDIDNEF
Protocol: as §1

caveolin 1 = target: T3, caveolin 1 (UniProt Q03135 2-178, limits assumed)
T3 construct: whole, on cells
T3 sequence (looked up): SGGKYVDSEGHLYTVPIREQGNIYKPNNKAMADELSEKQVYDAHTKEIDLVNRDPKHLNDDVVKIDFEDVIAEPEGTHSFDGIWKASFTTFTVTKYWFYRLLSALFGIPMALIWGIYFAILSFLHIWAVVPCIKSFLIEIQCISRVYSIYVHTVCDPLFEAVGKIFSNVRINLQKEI
Protocol: as §1

Measured: binding result

T1 sequence (P12004 whole entry): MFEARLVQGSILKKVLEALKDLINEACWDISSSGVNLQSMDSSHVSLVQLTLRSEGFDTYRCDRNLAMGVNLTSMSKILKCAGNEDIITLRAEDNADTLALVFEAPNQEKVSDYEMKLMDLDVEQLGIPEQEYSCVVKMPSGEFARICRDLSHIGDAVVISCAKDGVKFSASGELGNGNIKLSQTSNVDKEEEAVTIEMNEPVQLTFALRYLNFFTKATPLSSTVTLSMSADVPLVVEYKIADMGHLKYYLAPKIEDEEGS

KKGFYKKKQCRPSKGRKRGFCWAVDKYG (cysteine pairing not given here; also: biotinylated, position not given here, also called biotinylated MBD21 peptide) [MBD21 peptide (biotinylated)]
binds: all assays above
